Values of other authors as cited in paper PMC6540754.
pKd: −log10 of the molar value.

Molecular target: BfrB (Pseudomonas aeruginosa) (UniProt Q9HY79)
Sequence of UniProt Q9HY79 (Q9HY79 whole entry): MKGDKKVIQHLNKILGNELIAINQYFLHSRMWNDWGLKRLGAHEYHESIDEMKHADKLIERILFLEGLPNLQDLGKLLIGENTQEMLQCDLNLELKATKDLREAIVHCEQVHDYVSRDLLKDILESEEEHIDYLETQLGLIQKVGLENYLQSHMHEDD

Question: With Bfd (from UniProt Q9HY80) as the substance, how does the pKd read?
Answer: 5.47
